This is an account of results in paper PMC3962104.

The test addresses T1, S. cerevisiae Ump1, C-terminally 6His-tagged (wild type) (S. cerevisiae), P38293.
T1 chain: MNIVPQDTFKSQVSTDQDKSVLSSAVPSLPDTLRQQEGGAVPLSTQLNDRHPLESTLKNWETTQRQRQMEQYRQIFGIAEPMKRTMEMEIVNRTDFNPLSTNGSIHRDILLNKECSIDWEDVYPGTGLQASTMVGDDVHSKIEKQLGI
The experiment in a line: non-reducing SDS-PAGE; ion-exchange peak fractions loaded in sample buffer without (-) or with (+) 10 mM DTT, 15% SDS-PAGE, Coomassie Blue; the 36 kDa species is seen when no reducing agent is added. To be noted: remark: other sources report otherwise.

B1: S. cerevisiae Ump1, C-terminally 6His-tagged (wild type), P38293 1-148 (natural protein)
chain: MNIVPQDTFKSQVSTDQDKSVLSSAVPSLPDTLRQQEGGAVPLSTQLNDRHPLESTLKNWETTQRQRQMEQYRQIFGIAEPMKRTMEMEIVNRTDFNPLSTNGSIHRDILLNKECSIDWEDVYPGTGLQASTMVGDDVHSKIEKQLGI
By stoichiometry N is commonly meant a count of units in the complex or per binding partner. With B1, the stoichiometry N was determined as 2.
